According to article doi:10.1101/2023.01.06.522972:

Molecular target: Leishmania major actin (Leishmania major) (UniProt P45520)
Experiment: ITC

Sequence of Leishmania major actin (Leishmania major) (P45520 2-376): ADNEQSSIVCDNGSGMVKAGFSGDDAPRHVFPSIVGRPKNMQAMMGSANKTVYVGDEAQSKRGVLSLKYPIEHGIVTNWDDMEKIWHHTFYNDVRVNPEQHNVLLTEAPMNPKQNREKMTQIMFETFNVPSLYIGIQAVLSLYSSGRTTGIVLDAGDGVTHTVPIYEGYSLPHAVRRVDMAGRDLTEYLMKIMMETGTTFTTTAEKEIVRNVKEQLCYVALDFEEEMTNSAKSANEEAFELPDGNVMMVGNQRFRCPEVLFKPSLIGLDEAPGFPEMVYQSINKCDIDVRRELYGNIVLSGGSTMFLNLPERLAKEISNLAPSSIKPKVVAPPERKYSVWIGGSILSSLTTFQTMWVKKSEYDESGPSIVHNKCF

Row | Substance | Kd
1 | LmProfilin-K68A (natural protein) | 6 µM
2 | LmProfilin-Y6A (natural protein) | 0.08 µM
